Measured values reported in PMC3397946, “Identification and Characterization of the Cognate Anti-Sigma Factor and Specific Promoter Elements of a T. tengcongensis ECF Sigma Factor”.

Columns and labels:
[1] = molecular target: T1, Tt-RpoE1 (Thermoanaerobacter tengcongensis MB4T, UniProt Q8RCT7 1-162); experiment: EMSA; 5 uM protein; abolition; 50 mM Tris-HCl pH 8.0, 10 mM MgAc2, 30 mM NaCl, 1 mM DTT, 5% glycerol, 30 ug/ml BSA, 0.5 mM EDTA, 1 ug poly(dI-dC), 20 fmol probe in 20 ul, 25 C, 20 min; details: protein: recombinant; tags: His (pET28a); label: 5'-32P top strand; fork: top 3' overhang 10 nt
T1 sequence: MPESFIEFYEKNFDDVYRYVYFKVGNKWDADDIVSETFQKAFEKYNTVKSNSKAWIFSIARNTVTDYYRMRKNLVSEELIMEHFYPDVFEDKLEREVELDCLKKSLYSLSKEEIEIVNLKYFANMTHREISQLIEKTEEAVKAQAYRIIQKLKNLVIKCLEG

[2] = molecular target: T2, Tt-RpoE1 D66A (Thermoanaerobacter tengcongensis MB4T, UniProt Q8RCT7 1-162, D66A); experiment: EMSA; 5 uM protein; D66A cures -12G defect; 50 mM Tris-HCl pH 8.0, 10 mM MgAc2, 30 mM NaCl, 1 mM DTT, 5% glycerol, 30 ug/ml BSA, 0.5 mM EDTA, 1 ug poly(dI-dC), 20 fmol probe in 20 ul, 25 C, 20 min; details: protein: recombinant; tags: His (pET28a); label: 5'-32P top strand; fork: top 3' overhang 12 nt
T2 sequence: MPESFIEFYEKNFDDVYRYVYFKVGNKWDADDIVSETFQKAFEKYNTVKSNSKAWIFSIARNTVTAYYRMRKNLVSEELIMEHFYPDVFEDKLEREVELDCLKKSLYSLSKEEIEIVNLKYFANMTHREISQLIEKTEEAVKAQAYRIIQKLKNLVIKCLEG

[3] = molecular target: T1, Tt-RpoE1; experiment: EMSA; 5 uM protein; 50 mM Tris-HCl pH 8.0, 10 mM MgAc2, 30 mM NaCl, 1 mM DTT, 5% glycerol, 30 ug/ml BSA, 0.5 mM EDTA, 1 ug poly(dI-dC), 20 fmol probe in 20 ul, 25 C, 20 min; details: protein: recombinant; tags: His (pET28a); label: 5'-32P top strand; fork: top 3' overhang 10 nt
[4] = molecular target: T1, Tt-RpoE1; experiment: EMSA; 5 uM protein; little effect; 50 mM Tris-HCl pH 8.0, 10 mM MgAc2, 30 mM NaCl, 1 mM DTT, 5% glycerol, 30 ug/ml BSA, 0.5 mM EDTA, 1 ug poly(dI-dC), 20 fmol probe in 20 ul, 25 C, 20 min; details: protein: recombinant; tags: His (pET28a); label: 5'-32P top strand; fork: top 3' overhang 12 nt
[5] = molecular target: T3, Tt-RpoE1 R69A (Thermoanaerobacter tengcongensis MB4T, UniProt Q8RCT7 1-162, R69A); experiment: EMSA; 5 uM protein; affinity remained; 50 mM Tris-HCl pH 8.0, 10 mM MgAc2, 30 mM NaCl, 1 mM DTT, 5% glycerol, 30 ug/ml BSA, 0.5 mM EDTA, 1 ug poly(dI-dC), 20 fmol probe in 20 ul, 25 C, 20 min; details: protein: recombinant; tags: His (pET28a); label: 5'-32P top strand; fork: top 3' overhang 12 nt
T3 sequence: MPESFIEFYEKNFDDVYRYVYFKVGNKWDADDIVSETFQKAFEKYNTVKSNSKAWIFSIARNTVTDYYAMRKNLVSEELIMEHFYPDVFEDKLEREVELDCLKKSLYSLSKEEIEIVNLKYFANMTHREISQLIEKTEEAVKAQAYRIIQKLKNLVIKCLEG

[6] = molecular target: T4, Tt-RpoE1 Y67A (Thermoanaerobacter tengcongensis MB4T, UniProt Q8RCT7 1-162, Y67A); experiment: as above; details: protein: recombinant; tags: His (pET28a); label: 5'-32P top strand; fork: top 3' overhang 12 nt
T4 sequence: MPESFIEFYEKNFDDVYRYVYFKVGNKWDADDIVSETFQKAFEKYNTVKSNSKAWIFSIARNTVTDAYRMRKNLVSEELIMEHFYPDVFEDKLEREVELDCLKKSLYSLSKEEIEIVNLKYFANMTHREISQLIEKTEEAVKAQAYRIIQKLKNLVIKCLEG

[7] = molecular target: T1, Tt-RpoE1; experiment: EMSA; 5 uM protein; parental; 50 mM Tris-HCl pH 8.0, 10 mM MgAc2, 30 mM NaCl, 1 mM DTT, 5% glycerol, 30 ug/ml BSA, 0.5 mM EDTA, 1 ug poly(dI-dC), 20 fmol probe in 20 ul, 25 C, 20 min; details: protein: recombinant; tags: His (pET28a); label: 5'-32P top strand; fork: top 3' overhang 12 nt

B1: D-5-M5 (-32TACC-29 to GGTT) (dsDNA)
DNA 1: TGTGGTTTTTTGTGTAGATTTTCGTCTATAAAGGTG
DNA 2: GACGAAAATCTACACAAAAAACCACA
B1: no binding [1].

B2: D-5-B2G (-12G to T) (dsDNA)
DNA 1: TGTTACCTTTTGTGTAGATTTTCTTCTATAAAGGTG
DNA 2: AGAAAATCTACACAAAAGGTAACA
B2: binds [2].

B3: D-5/-10 (dsDNA)
DNA 1: TGTTACCTTTTGTGTAGATTTTCGTCTATAAAGGTG
DNA 2: GACGAAAATCTACACAAAAGGTAACA
B3: binds [3].

B4: D-5-b8a/-12 (-6A to G) (dsDNA)
DNA 1: TGTTACCTTTTGTGTAGATTTTCGTCTATGAAGGTG
DNA 2: CGAAAATCTACACAAAAGGTAACA
B4: binds [4].

B5: D-5-b5t/-12 (-9T to G) (dsDNA)
DNA 1: TGTTACCTTTTGTGTAGATTTTCGTCGATAAAGGTG
DNA 2: CGAAAATCTACACAAAAGGTAACA
B5: binds [4].

B6: D-5-b7t/-12 (-7T to G) (dsDNA)
DNA 1: TGTTACCTTTTGTGTAGATTTTCGTCTAGAAAGGTG
DNA 2: CGAAAATCTACACAAAAGGTAACA
B6: binds [4].

B7: D-5/-12 (dsDNA)
DNA 1: TGTTACCTTTTGTGTAGATTTTCGTCTATAAAGGTG
DNA 2: CGAAAATCTACACAAAAGGTAACA
B7: binds [5]; binds [6]; binds [7].

B8: D-5-BM4 (-9TATA-6 to CCCC) (dsDNA)
DNA 1: TGTTACCTTTTGTGTAGATTTTCGTCCCCCAAGGTG
DNA 2: CGAAAATCTACACAAAAGGTAACA
B8: binds [4].
